This experiment deals with giantin-WT-GFP (UniProt Q14789). Kind of experiment: atomic force microscopy (particle volumes); giantin-GFP isolated with GFP-Trap Magnetic Agarose from DMSO- or BFA-treated HeLa cells (lysate with NEM), treated with 2% β-mercaptoethanol, deposited on mica, tapping mode in air; volumes by the spherical cap model, Gaussian fit of the …. The settings on record: remark: other sources report otherwise.

Here are results for 1 substance from PMC6953117.

As a reminder, the stoichiometry N is a count of units in the complex or per binding partner.

For giantin-WT-GFP, Q14789 1-3259, the percent of particles in the dimer peak (BFA-treated cells) came out at 10%, the percent of particles in the dimer peak (DMSO-treated cells) was found to be 27% and the stoichiometry N is 2.
